Data: the DeepSol protein solubility set

assay: soluble on expression in E. coli; label from the status in PepcDB or PDB records

Sequence | soluble on expression in E. coli
MESTVTTQEEKLAYQQSVEMASNYANQFDADMKANLAIARTISTTMESYETADRDEALLILENLLRDNPHLLGTYVAFEPDAFDGKDAEYTNSPAHDGTGRFVPYWNKMNGTASVAPLLHYDSSDYYQLPKATEKDVLTEPYFYEGVFMVSYVSPIMKEGEFAGIGGVDVSLEYVDEVVSKVRTFDTGYAFMVSNSGVILSHPTHKDWIGKKDLYDFGGEELEKASRDIKNGIGGHLETADPTTGKTVILFYEPVETGDFAFVLVVPKEEMLAGVADLRERLLEHHHHHH | soluble
MESVPSPRRVVLTPGARRALDAAGRLFYERGIHAVGVDLIAAEAGVTKKTLYDRFGSKEQIVVEYLADRDERWRAFLAGHLDTAGDSPGRRLTAIFDASREWTAENSAKGCSMVNAHAEISDPAHPAYAVIVGQKRWMLDLFTGVCRDASVRDPETLARTVMLLHEGALVSHGLQVFPEAVRLASDQASALLAAAAGPAR | not soluble
METAPKPVGPYSQAVESGCFMFVSGQIPINPETGALEEGGFKESAKRALDNLKAIVEGAGYSMDDIVKVTVYITDISRFSEFNEVYREYFNRPYPARAVVGVAALPLGAPLEVEAVLYTCRRK | soluble
METESWKLLESSIIYYEGNPIGTVAAQDPELAALNYDQCFLRDFVPSAFVFLMDGQTDIVRNFLIETLTLQSHEKEMDCFQPGAGLMPASFKVESDGSKEYLVADFGEKAIARVPPVDSCMWWILLLRAYEKATGDLTLAREPKFQAGIKLILDLCLAHRFSMYPTMLVPDGAFMIDRRMGVYEHPLEIQVLFYAALRAARELLLPDGDGEQYLNKVHGRLGALQYHIRNYYWVDLKRLREIYRYKGNEFGKEIANKFNIFSQSIPDWVIEWLPEKGGYLAGNLGPGRMDFRFFALGNLMAILAGLASEEESQRIMNLFAHRWEDLIGYMPVKICYPALQGLEWQIVTGCDPKNIPWSYHNGGNWPVLLWLFTAAALKTGKVELAHEAIAIAEGRLSNDKFPEYYDGNNGRLIGKEARIYQTWSIAGLLVAKQFLANPDHVEFISFPDTFIGPGCSLLEHHHHHH | soluble
METRAAENTAIFMCKCCNLFSPNQSELLSHVSEKHMEEGVNVDEIIIPLRPLSTPEPPNSSKTRDEFLVMKRKRGRPKGSTKKSSTEEELAENIVSPTEDSPLAPEEGNSLPPSSLECSKCCRKFSNTRQLRKHICIIVLNLGEEEGEAGNESDLELEKKCKEDDREKASKRPRSQKTEKVQKISGKEARQLSGAKKPIISVVLTAHEAIPGATKIVPVEAGPPETGATNSETTSADLVPRRGYQEYAIQQTPYEQPMKSSRLGPTQLKIFTCEYCNKVFKFKHSLQAHLRIHTNEKPYKCPQCSYASAIKANLNVHLRKHTGEKFACDYCSFTCLSKGHLKVHIERVHKKIKQHCRFCKKKYSDVKNLIKHIRDAHDPQDKKVKEALDELCLMTREGKRQLLYDCHICERKFKNELDRDRHMLVHGDKWPFACELCGHGATKYQALELHVRKHPFVYVCAVCRKKFVSSIRLRTHIKEVHGAAQEALVFTSSINQSFCLLEPGGDIQQEALGDQLQLVEEEFALQGVNALKEEACPGDTQLEEGRKEPEAPGEMPAPAVHLASPQAESTALPPCELETTVVSSSDLHSQEVVSDDFLLKNDTSSAEAHAAPEKPPDMQHRSSVQTQGEVITLLLSKAQSAGSDQESHGAQSPLGEGQNMAVLSAGDPDPSRCLRSNPAEASDLLPPVAGGGDTITHQPDSCKAAPEHRSGITAFMKVLNSLQKKQMNTSLCERIRKVYGDLECEYCGKLFWYQVHFDMHVRTHTREHLYYCSQCHYSSITKNCLKRHVIQKHSNILLKCPTDGCDYSTPDKYKLQAHLKVHTALDKRSYSCPVCEKSFSEDRLIKSHIKTNHPEVSMSTISEVLGRRVQLKGLIGKRAMKCPYCDFYFMKNGSDLQRHIWAHEGVKPFKCSLCEYATRSKSNLKAHMNRHSTEKTHLCDMCGKKFKSKGTLKSHKLLHTADGKQFKCTVCDYTAAQKPQLLRHMEQHVSFKPFRCAHCHYSCNISGSLKRHYNRKHPNEEYANVGTGELAAEVLIQQGGLKCPVCSFVYGTKWEFNRHLKNKHGLKVVEIDGDPKWETATEAPEEPSTQYLHITEAEEDVQGTQAAVAALQDLRYTSESGDRLDPTAVNILQQIIELGAETHDATALASVVAMAPGTVTVVKQVTEEEPSSNHTVMIQETVQQASVELAEQHHLVVSSDDVEGIETVTVYTQGGEASEFIVYVQEAMQPVEEQAVEQPAQEL | soluble
METSETDSTGNTQTCETRQTRSNSWTAWGIHAISTITDGAKQLYTKALGLDELEEKKLEDEEGVTHVEVDEKTKRDLWNQLSTLVGADVINMRLSLPVWLFEPTTALQRMCETLQFHQLLDMAATCEEPVERDALVAAFTVSAFAHTERVYKPFNPVLGETFEWTSRDGTTRVLCEQVSHHPPVSVSYTEGPGWVAQEVFSCNAYFLGNSVEIRNTGSRYVYLTSFDERYEWTLPVSAAQNLFVGGSFIDHYGELILRSSPRGSVTSLTFTKCGWFGRGRYAVNGDIVDADGYRVMELSGEWNRGLVGFRLDKSSGERVDAKSLWYAGEHKPAVKRDKYNFTNFTYELLEVPDNAESIIPPTDSRFRPDRRALEGNNLSLANLEKVRVENIQRERENQRQKTGTTYVPAWFYQDDNNEWHFGGKYWKETRNMSEDQKEQMKLW | soluble
METTQTLRFKTKALAVLSKCYDHAQTHLKGGVLQVNLLSVNYGGPRLAAVANAGTAGLISFEVSPDAVAEWQNHQSPEEAPAAVSFRNLAYGRTCVLGKELFGSAVEQASLQFYKRPQGGSRPEFVKLTMEYDDKVSKSHHTCALMPYMPPASDRLRNEQMIGQVLLMPKTASSLQKWARQQGSGGVKVTLNPDLYVTTYTSGEACLTLDYKPLSVGPYEAFTGPVAKAQDVGAVEAHVVCSVAADSLAAALSLCRIPAVSVPILRFYRSGIIAVVAGLLTSAGDLPLDLSVILFNHASEEAAASTASEPEDKSPRVQPLGTGLQQRPRHTVSPSPSPPPPPRTPTWESPARPETPSPAIPSHSSNTALERPLAVQLARKRTSSEARQKQKHPKKVKQAFNPLI | soluble
MEVEVEKDCRTECSREREIEKERSKDEFHGLIEIDGECMQSGNRKWKRIDSAVKVAKKEKKKKMKDEEKKKEDEDNLQHTIQQSE | soluble
MEVGMIPRVYLGHEWFGAERILSEYQVPEDCGAQVLFLGIPRNAPEDGGNIEALEYEAYPEMAIKEMEKIRQETIEKFGVKEVFIHHRLGLVKIGEPSFLVLAVGGHREETFKACRYAVDETKKRVPIWKKEIFKEGKGEWVLGEKKNASGQTK | soluble
MEVKLWNDKREREMYENFAELFAIIKATEKLEKAYIRDLINPSEYESECQKLIVHFKTLSATLKDTVPNIERFADTYKMDCPAALYRLVTSGLPATVEHRATVAASTSNSASIVAECVQNFITSMDSLKLNMVAVDQVYPLLSDLSASLNKLSILPPDFEGKTKMKEWLSRLSKMGAADELTEQQSRQLHFDLESSYNSFMAALPKAGN | soluble
MEVSTVNDVKIYNLSAGKSLPEWMSSRTRRKLEQRNTDVRQRIQLIQDFEMPDVSNTVNITPDGKYVWASGNYKPWLRCYDLNNLSLKFERGLDADVIKLIPLSDDYSKVVILEEERWIEMHAMLGRYFRMRMPCQGRDMALSEESSDLYLVGSKSEVYRFNLEQGCWLTPFESTAPLNCVQVCTEHQLICCGTTNGVVEAWDHRDKSLCGTLDAGSSVNSHIGENQKVAVTSVAFSDPLHIGVGTSTGQILIYDLRARRPLLIKDHNNELPINKLDFIKRDDGDVVASMDSRMMKLWHEEDGSPMAAIENTCPLNDFCRFPNSGMFFFANEAPKMLQYFIPQLGPAPKWCSYLENLTEEMEETETTVYDNYRFVTKKQLDDLGLSGLIGTNVLRAYMHGYFIDARLYNKAQTQMQPFAYEKYKDEKIKSMIADEREESAVKKKVEKLPAVNKALAARLRDEASAANQKAETKKEKKKSKKSDAATSLLADDRFKKLFESEDFEVDETSEQFLKNASIAQKMKAKGPVEVESEGEESEDNDASDSENEASGSDSEPKGSASWMVEENREVDMASDLESASSDEDIDQSLKAKRAKVRAAKKSERNIQKSQKYDERKEAKKIRKEQRQLSKPSKFVLHSIGTGETTRKFVDETVAVRDDADNKDSMALGARKRATARSDRKTKKVNDDDVPFGGREMTFTISKRDKDLRAEAAKTKQAAHAAERKEVSRRPNALVTKGLKKLPGNVNVGKRQNTF | soluble
MEWKGRDVISIRDFSKEDIEVVLSTAERLEKEMKEKGQLEYAKGKILATLFFEPSTRTRLSFESAMHRLGGSVIGFAEASTSSVKKGESLRDTIKTVEQYSDVIVIRHPKEGAARLAAEVADIPVINAGDGSNQHPTQTLLDLYTIKKEFGTIDGLKIGLLGDLKYGRTVHSLAEALAFYDVELYLISPELLRMPKHIVEELRERGMKIVETTKLEEVIGELDVLYVTRIQKERFPDEQEYLKVKGSYQVNLKILENVKDSLRIMHPLPRVDEIHPEVDKTKHAIYFKQVFNGVPVRMALLALVLGVI | soluble
MEWPRFGRVVLKPFSAGLSEAEWKGLYETFRDPEVAEWNGSSPLRSPFWLFKRFVLAEARRKDRVAFVILDEKGEYLGTLELYDLTPEEATLGILIGRKDRWGQGYGTEAVRAALDYAFRVLGLRRVKLRTFAHNLRARRAFQKAGFREVGVVPGPRGREDVHMEVRREDLGPEA | soluble
MEYFNAGGGGSTGNGSTDPYAVIPQQFGNGGQQPQQQVFTDYQQDGSATDYETYQQQQQQYRAAQASQQSSSMYYQNQMTAAQANYFPIHSASEHDFLGPQQPPSATTSVSGAAGAPYQSASGGNKEFMMQHQQRRGNQSGQQQQNQPSQQNNQQQQNQGARQQHPQQMQQQQQSNQSAHFMHQQLQAVQQQQAQQMHHRLQGAPINPQQFMVPPPTMMQPQQMQQAQQQQAQQMHQMQIHHQQHPQMMQQHAQQGYHPHQQNQQHQAGQHQQSHHQSQNHNQHRNHNQSHSGPHHIPQNLMMPRCMLKDWPIRCVVEGKYHAVIIGPNGSTIKDIASSTRCRVDFVNLSKKERTVLGNNDRILTVHGVAEQATKAVARILDVIQSEAVKDDVNVGADTVLRMRAHNQLCGRLIGKAGSSIKEIMQKTGTNITVTKYIEPPGGISGLTANELLGLMERTIMVRGPSIEAVVQAEALISAKLKKCYESDSQLRAQSMQCPMPPMMMPPILPPGASSSAVSAPHFIPTPPGVLQIQPGTTNLRQVRMWVPDSMIGALIGAKGKNIKMIIRDTGASVKIEAPEEKTQREAEEAEKKRKLDETDSGCEGVASGDHPQEFLEDNATINSSDAIEEKPKPVSERMVTINGDDLQLLKAQSYVFSKIAETSSSLPSSGMDGDRSHMLRIRTEVSVPTRIIGRIIGKGGQNVRELQRITGAVVKIPEEERNGGEVYRHDDGLEEDMTMIRTIGNMYSTHNVQFRLAHLVNEYYRSGDHRNKSSDYKGGRPHSAPSSGQEKDGSALEKMDQLGTIAPISNSNRASPKSVSPPKSKSP | not soluble
MEYGNLRRQAASLKKSLFDQGYLDEQFCQVEDLQDEANPNFAEEVVSLFFKDSTRVMLNFEQAIEKHPKDFARWDTHMQQLKGSCSSIGASRVKNECTSFRNFCGEENAEGCTRSFQKVKREHAVLRQKWESYFQLLRQAGPAGTATRPAGK | not soluble
MEYKKILIRLLIAFAVLFSADFTYQSVEQTHQSHAAVNYYSKNQCTWWAFKRRAQVGKPVSNRWGNAKNWYYNARKSKYATGRTPRKFAVMQSTAGYYGHVAVVEQVYKNGSIKVSEYNFYRPLKYNTRVLSKKAARNFNYIYLEHHHHHH | not soluble
MEYREFDFWYYKIGNGDANLTCKMSYNPKSPIFTDFPDTVVHTVLEKLLPAERMVVRNVSKKLRNLFDERYRVIKNVYMQVQDEEAILFFENHEELEKTFSCNGNDGNEKYLEIALEKVAKFTKNHKLEEFEVHFDDEAGEKHRWGLYDDVSDMFKASKAVLNTKKFSIELLRPDDAKAAFSHFKPGNLEDIEIEYFCTGYKYPKYPRCPRYDDDSDDSFEDNMGMYEQLTELAHWQKAKKVKIGVDDSLDFSIEALFHLENFEISLNKFTKNDAIKIRDVLLQTAHFQSGIITFSKDPGGTNMLKVFNPKYSGGENGPIIYKTKDSRFEIGLGYSSIEFKRI | not soluble
